Laboratory results from publication PMC3733117.

Target: DNA polymerase beta I260Q (rat, UniProt P06766 1-335, I260Q)
Assay: X-ray crystallography

B1: cocrystallization primer/template (dsDNA)
DNA 1: ATGTGAG
DNA 2: CAAACTCACAT
B1: binds.
